# From publication PMC8864165, “Functional Effects of ARV-1502 Analogs Against Bacterial Hsp70 and Implications for Antimicrobial Activity” (Frontiers in Chemistry, 2022)
# B1: unnamed (parent)
# chain 1: RPDKPRPYLPRPRPPRPVR
# chain 2: not shown
# Variants of: B1
# Test: competitive fluorescence polarization
# Conditions: with partner chain of the complex shown; S. aureus DnaK 16 µmol/L; unlabeled peptide 35 µmol/L
row,Variant,ratio to parent
1,chain 1 D3F K4F R11F,< 1
2,chain 1 D3F K4F R11L,< 1
3,chain 1 Y8L,< 1
4,chain 1 D3S K4S Y8L,< 1
5,chain 1 D3S K4S R11L,< 1
6,chain 1 D3F K4F P10S,< 1
7,chain 1 D3F K4F P10D,< 1
8,chain 1 D3K K4L,< 1
9,chain 1 D3K K4F,< 1
10,chain 1 D3K K4S,< 1
11,chain 1 D3K R11L,< 1
